The values below come from the supplement of paper PMC10567573.

± gives the standard deviation.

A short description of this data set: protein stability index of a GFP-peptide fusion (GPS, HEK-293T) (PSI 1-6); higher = more stable. To be noted: c terminus: a fixed tail appended.
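Further: 24-mer peptide tiles fused after GFP, lentivirally expressed, FACS-sorted into six equal bins by GFP/DsRed ratio, decoded by Illumina sequencing, PSI is the read-weighted mean bin number.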

For the sequence LFLMECEESPNGSEGACEKEKQSR [RHOBTB1], the protein stability index is, setting by setting: (treatment: DMSO) 4.69 ± 0.44; (treatment: MLN4924 1 uM, 8 h) 4.83 ± 0.17.
LFSIAPLIYGSMEMFPAAQQLYRH [JAGN1]: the protein stability index by setting is: (treatment: DMSO) 2.55 ± 0.41; (treatment: MLN4924 1 uM, 8 h) 2.6 ± 0.57.
Regarding LFVLLSVVCVLLNLAGFILGCQGA [FAM189A2], the protein stability index came to 3.15 ± 0.38 (treatment: DMSO) and 3.25 ± 0.61 (treatment: MLN4924 1 uM, 8 h).
For LGACVAPGGNLIVELARYLVDVRQ [DNAAF3], in that order: 2.57 ± 0.44 and 2.12 ± 0.2.
Consider LGFRAFSGSGNRLDGKKKGVEPSP [UFD1], for which the protein stability index was determined as 4.25 ± 0.46 (treatment: DMSO) and 3.94 ± 0.29 (treatment: MLN4924 1 uM, 8 h).
On the same counts, the results for LGLSLTNGLALGPDLNILEDSAES [PSD2] are 4.56 ± 0.15 and 4.78 ± 0.31.
As to LGSSRTPETVRMVLSNMEKLFCIP [IMPA1], the protein stability index came out at 2.08 ± 0.39 (treatment: DMSO) and 2.2 ± 0.26 (treatment: MLN4924 1 uM, 8 h).
For LHILARDVHNRIVIRGLNTIPLFV [CTNNB1], in that order: 2.73 ± 0.48 and 2.68 ± 0.56.
Consider LHSISDSVLFLQEFGALMSNYSLP [TRIM29], for which the protein stability index is, setting by setting: (treatment: DMSO) 2.41 ± 0.43; (treatment: MLN4924 1 uM, 8 h) 2.12 ± 0.26.
As to LIKDAIVSTQPAMMVNLRACSAPG [C2CD2L], the protein stability index (treatment: DMSO) was found to be 2.82 ± 0.26 and the protein stability index (treatment: MLN4924 1 uM, 8 h) came to 2.54 ± 0.31.
As for LIKPSRVVAILAAACLLQLDGLIQ [GMCL1], the protein stability index is 3.11 ± 0.32 (treatment: DMSO) and 2.89 ± 0.27 (treatment: MLN4924 1 uM, 8 h).
LILESQNWRYATGGWETVFRPVSE [FUT8] yielded a protein stability index (treatment: DMSO) of 2.42 ± 0.22 and a protein stability index (treatment: MLN4924 1 uM, 8 h) of 2.29 ± 0.11.
In turn, LIRLFWTWHDERFLYMLMEYVPGG [PRKX] came in with a protein stability index (treatment: DMSO) of 2.59 ± 0.47 and a protein stability index (treatment: MLN4924 1 uM, 8 h) of 2.48 ± 0.35.
For the sequence LITFDNKAHSGRIPISLETQAHIQ [MCOLN1], the protein stability index turned out to be 2.91 ± 0.26 (treatment: DMSO) and 3.04 ± 0.23 (treatment: MLN4924 1 uM, 8 h).
Consider LKFDAYFQEDVPMSTEEQYRIRQV [EFHC1], for which the protein stability index runs as follows: (treatment: DMSO) 3.44 ± 0.14; (treatment: MLN4924 1 uM, 8 h) 3.46 ± 0.28.
For LKIDFGDSARADDARQLFVLAGAA [GNAI1], in that order: 2.59 ± 0.37 and 2.68 ± 0.27.
As to LKPTASKLGAPLSGLQGLPECTRC [PDLIM4], the protein stability index was found to be 3.24 ± 0.31 (treatment: DMSO) and 3.44 ± 0.12 (treatment: MLN4924 1 uM, 8 h).
For LKRLYRAPIDWIEEYTTGMADCIL [ALG2], in that order: 2.26 ± 0.68 and 2.28 ± 0.69.
On the same counts, the results for LKRSANQMGVSAKRRPKAQPTTLV [MED27] are 3.48 ± 0.17 and 3.72 ± 0.27.
Consider LKTQMKMSLKCLAARAVRANDINY [FEM1B], for which the protein stability index by setting is: (treatment: DMSO) 3.02 ± 0.44; (treatment: MLN4924 1 uM, 8 h) 2.67 ± 0.16.
On the same counts, the results for LKYFSDFRPYFTIHDSEFKEYTTR [DENND6A] are 2.19 ± 0.32 and 2.3 ± 0.2.
As for LKYMEVTLRPTDSQSHCYRTCFSP [PCDHGC5], the protein stability index runs as follows: (treatment: DMSO) 2.31 ± 0.2; (treatment: MLN4924 1 uM, 8 h) 2.25 ± 0.34.
LLATAEQEQLSLSQRQAKELKLEQ [LRRC45]: the protein stability index is, setting by setting: (treatment: DMSO) 4.88 ± 0.21; (treatment: MLN4924 1 uM, 8 h) 5.02 ± 0.15.
LLATFPRRALAPPSAGFRCCAAPG [ANKRD9]: the protein stability index reads like this: (treatment: DMSO) 2.47 ± 0.16; (treatment: MLN4924 1 uM, 8 h) 2.45 ± 0.14.
On to LLHLAVNSNTPVDDFHTNDVCSFP [FEM1B], for which the protein stability index worked out at 2.85 ± 0.25 (treatment: DMSO) and 2.74 ± 0.12 (treatment: MLN4924 1 uM, 8 h).
LLKAGAEVNVLNDMRDTPLHRAAF [OSBPL1A]: the protein stability index worked out at 3.12 ± 0.24 (treatment: DMSO) and 3 ± 0.17 (treatment: MLN4924 1 uM, 8 h).
As for LLPNQSHGNQSAGEDQAFGDWLLT [SLC22A15], the protein stability index came out at 4.14 ± 0.35 (treatment: DMSO) and 4.24 ± 0.18 (treatment: MLN4924 1 uM, 8 h).
Turning to LLRDHIPRGKEELESLGGGKTPPG [MOG], the protein stability index stood at 4.89 ± 0.18 (treatment: DMSO) and 4.81 ± 0.37 (treatment: MLN4924 1 uM, 8 h).
For LLRREPAERLTATGILLHPWLRQD [TRIB3], in that order: 2.47 ± 0.27 and 2.45 ± 0.25.
On the same counts, the results for LNHVKSMWYPEIKHFCPRTPVILV [RHOBTB1] are 3.16 ± 0.47 and 3.1 ± 0.82.
For LNIKVKLEAEIATYRRLLEDGEDF [KRT18], the protein stability index (treatment: DMSO) was found to be 2.66 ± 0.2 and the protein stability index (treatment: MLN4924 1 uM, 8 h) came to 2.5 ± 0.34.
As to LNIVPRTKVVYLASETFNYSAIDR [PI4K2A], the protein stability index stood at 2.28 ± 0.18 (treatment: DMSO) and 2.07 ± 0.2 (treatment: MLN4924 1 uM, 8 h).
As to LNLAMVYRYCCKLNKKLKSYSLSR [CDC14A], the protein stability index turned out to be 3.32 ± 0.69 (treatment: DMSO) and 3.04 ± 0.49 (treatment: MLN4924 1 uM, 8 h).
Regarding LNRDEEIIKQLQKGVQQKRPSEAQ [DENND6A], the protein stability index reads like this: (treatment: DMSO) 4.94 ± 0.097; (treatment: MLN4924 1 uM, 8 h) 4.83 ± 0.31.
As for LNVRSEEQVFNAVMAWVKYSIQER [KLHL20], the protein stability index (treatment: DMSO) was found to be 2.54 ± 0.77 and the protein stability index (treatment: MLN4924 1 uM, 8 h) came to 2.42 ± 0.23.
On the same counts, the results for LPDCCHGSELRDFPGRPMGHLSKD [DLC1] are 4.44 ± 0.29 and 4.32 ± 0.27.
